Values of other authors, collected in publication PMC3470569.

Target: V-ATPase subunit a proximal lobe of N-terminal domain (Saccharomyces cerevisiae) (UniProt P32563)
Sequence (P32563 104-372): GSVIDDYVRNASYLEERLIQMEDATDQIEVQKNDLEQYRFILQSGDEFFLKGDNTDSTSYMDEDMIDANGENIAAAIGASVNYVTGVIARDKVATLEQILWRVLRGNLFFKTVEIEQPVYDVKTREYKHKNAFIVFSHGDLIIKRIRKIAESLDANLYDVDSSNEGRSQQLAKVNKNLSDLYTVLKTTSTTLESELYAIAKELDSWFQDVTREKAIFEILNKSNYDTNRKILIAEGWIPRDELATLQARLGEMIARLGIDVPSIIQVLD

V-ATPase subunit C Cfoot, sequence (P31412 158-277): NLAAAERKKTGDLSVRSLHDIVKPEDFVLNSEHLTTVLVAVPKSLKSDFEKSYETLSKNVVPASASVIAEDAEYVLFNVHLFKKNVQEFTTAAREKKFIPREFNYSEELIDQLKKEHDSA

For “V-ATPase subunit C Cfoot (from UniProt P31412)”, the Kd is listed as 30 µM.
